Reference: publication PMC4567411 (Nature, 2015)

B2: biotin-MYC3(44-238) (domain or fragment, Arabidopsis, UniProt Q9FIP9 44-238, looked up)
chain: QPQFNEDTLQQRLQALIESAGENWTYAIFWQISHDFDSSTGDNTVILGWGDGYYKGEEDKEKKKNNTNTAEQEHRKRVIRELNSLISGGIGVSDESNDEEVTDTEWFFLVSMTQSFVNGVGLPGESFLNSRVIWLSGSGALTGSGCERAGQGQIYGLKTMVCIATQNGVVELGSSEVISQSSDLMHKVNNLFNFN
modifications: biotin (site not stated)
B3: biotin-MYC3(5-242) (domain or fragment, Arabidopsis, UniProt Q9FIP9 5-242, looked up)
chain: TSSINFLTSDDDASAAAMEAFIGTNHHSSLFPPPPQQPPQPQFNEDTLQQRLQALIESAGENWTYAIFWQISHDFDSSTGDNTVILGWGDGYYKGEEDKEKKKNNTNTAEQEHRKRVIRELNSLISGGIGVSDESNDEEVTDTEWFFLVSMTQSFVNGVGLPGESFLNSRVIWLSGSGALTGSGCERAGQGQIYGLKTMVCIATQNGVVELGSSEVISQSSDLMHKVNNLFNFNNGGG
modifications: biotin (site not stated)

Key:
Test in all cases: AlphaScreen or HTRF
biotin-MYC3(44-238) [1] = target: B2
biotin-MYC3(5-242) = target: B3
biotin-MYC3(44-238) [2] = target: B2; remark: listed apart in the source
His6Sumo-MED25(407-680) = target: T1, His6Sumo-MED25(407-680) (Arabidopsis, UniProt Q7XYY2 407-680)
T1 sequence (looked up): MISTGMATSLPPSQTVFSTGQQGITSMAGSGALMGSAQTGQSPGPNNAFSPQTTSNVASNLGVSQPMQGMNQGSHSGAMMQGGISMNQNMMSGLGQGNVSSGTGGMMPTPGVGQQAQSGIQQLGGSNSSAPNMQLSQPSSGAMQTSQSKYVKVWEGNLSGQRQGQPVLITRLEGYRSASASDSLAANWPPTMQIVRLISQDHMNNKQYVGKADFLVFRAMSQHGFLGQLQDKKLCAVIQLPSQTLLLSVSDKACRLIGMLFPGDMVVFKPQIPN

B1: His6Sumo-MED25(540-680) (domain or fragment, Arabidopsis, UniProt Q7XYY2 540-680, looked up)
chain: QLSQPSSGAMQTSQSKYVKVWEGNLSGQRQGQPVLITRLEGYRSASASDSLAANWPPTMQIVRLISQDHMNNKQYVGKADFLVFRAMSQHGFLGQLQDKKLCAVIQLPSQTLLLSVSDKACRLIGMLFPGDMVVFKPQIPN
biotin-MYC3(44-238) [1]
  binding result: binds

## SVPQARKASLARFLEKRKERLM (peptide, UniProt Q8W4J8 218-239, looked up) [Jas22^JAZ9 peptide]
biotin-MYC3(5-242)
  IC50: ~490 nM
biotin-MYC3(44-238) [2]
  IC50: ~420 nM

## B2
His6Sumo-MED25(407-680)
  binding result: binds

## B3
His6Sumo-MED25(407-680)
  binding result: binds
